Key:
Format in all cases: in vivo
[1] = tested on: Arabidopsis thaliana T1 plants; assay: Mesotrione tolerance of transgenic Arabidopsis thaliana T1 plants (spray, bleached leaf area grade, damage score); set-up: Scores: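 damage score 0-100 computed as Σ(N×S)/(T×M)×100 over grades 0-3 with higher meaning more damage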; conditions: Arabidopsis thaliana T1 plants; for Grade 0 (classification and statistics of the grade of pesticide damage; number of plants) / Grade 1 (classification and statistics of the grade of pesticide damage; number of plants) / Grade 2 (classification and statistics of the grade of pesticide damage; number of plants) / Grade 3 (classification and statistics of the grade of pesticide damage; number of plants): 16 plants
Outline: (§1)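 T1 transformants selected by glufosinate; 18-day-old plants, with empty-vector and wild-type controls, sprayed with topramezone (25–200 g ai/ha), isoxaflutole (35–280 g ai/ha) or mesotrione (52.5–420 g ai/ha), water as 0×. Bleached leaf area fraction scored at 7 DAT as grades 0–3.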

soybean T1 plants [2] = assay: Isoxaflutole tolerance of transgenic soybean T1 plants; conditions: different concentrations
soybean T1 plants [3] = assay: Mesotrione tolerance of transgenic soybean T1 plants; conditions: different concentrations
[4] = tested on: Arabidopsis thaliana T1 plants; assay: Topramezone tolerance of transgenic Arabidopsis thaliana T1 plants (spray, bleached leaf area grade, damage score); conditions: 7 DAT, Table 4; for Classification and statistics of the grade of pesticide damage: Grade 0 / Classification and statistics of the grade of pesticide damage: Grade 1 / Classification and statistics of the grade of pesticide damage: Grade 2 / Classification and statistics of the grade of pesticide damage: Grade 3: number of plants; for Scores: pesticide damage score 0-100
Outline: as §1

[5] = tested on: Arabidopsis thaliana T1 plants; assay: Isoxaflutole tolerance of transgenic Arabidopsis thaliana T1 plants (spray, bleached leaf area grade, damage score); set-up: Scores (pesticide damage): scale not given here; conditions: spray, Arabidopsis thaliana T1 plants; for Classification and statistics of the grade of pesticide damage: Grade 0 (number of plants) / Classification and statistics of the grade of pesticide damage: Grade 1 (number of plants) / Classification and statistics of the grade of pesticide damage: Grade 2 (number of plants) / Classification and statistics of the grade of pesticide damage: Grade 3 (number of plants): 16 plants
Outline: as §1

soybean T1 plants [6] = assay: Topramezone tolerance of transgenic soybean T1 plants; conditions: different concentrations
Description: T1 transformants were initially selected from the untransformed seeds using a glufosinate selection scheme. […] The degree of damage caused by the herbicide was measured for each plant according to the proportion of bleached leaf area (the proportion of bleached leaf area=bleached leaf area/total leaf area×100%) 7 days after spraying (7 DAT): the case where there is basically no bleached phenotype is defined as grade 0, the case where the proportion of bleached leaf area is less than 50% is defined as grade 1, the case where the proportion of bleached leaf area is more than 50% is defined as grade 2, and the case where the proportion of bleached leaf area is 100% grade is defined as grade 3.
The soybean T1 plants into which the SbHPPD-02 nucleotide sequence was introduced, soybean T1 plants into which the SbHPPDm-F372A-02 nucleotide sequence was introduced, soybean T1 plants into which the SbHPPDm-F383W-02 nucleotide sequence was introduced, soybean T1 plants into which the SbHPPDm-F372A-F383W-02 nucleotide sequence was introduced, soybean T1 plants into which the control vector DBN11726N nucleotide sequence was introduced, and wild-type soybean plants (V3-V4 at seedling stage) were sprayed with topramezone at three different concentrations (i.e., 25 g ai/ha (one-fold field concentration, 1×). […] According to the method in point 6 of Example 1, after 7 days of spraying (7 DAT), the damage degree of each plant by the herbicide was statistically analyzed, and the scoring and resistance evaluation were carried out accordingly. […]

[7] = isoxaflutole 35 g ai/ha (0.5x field concentration)
[8] = isoxaflutole 70 g ai/ha (1x field concentration)

B1: SbHPPDm-F383W-02: nucleotide sequence encoding Sorghum bicolor HPPD with F383W; vector DBN11760 (nucleic acid)
DNA: ATGCCGCCCACTCCAACAACTGCTGCTGCGACGGGAGCAGCTGTCGCCGCTGCTTCTGCTGAGCAGGCTGCCTTCAGGCTCGTCGGGCACAGAAATTTTGTTCGTGTAAATCCAAGGAGTGATAGGTTCCACACCTTGGCTTTTCACCACGTGGAGTTGTGGTGTGCTGATGCAGCCTCGGCAGCGGGGCGCTTCTCGTTTGGTCTCGGTGCTCCGCTCGCCGCAAGATCTGATCTTAGCACTGGAAACACAGCGCATGCCTCCCTGCTCCTGCGCTCTGGCGCGCTGGCGTTCCTCTTCACGGCGCCATATGCTCACGGCGCCGACGCCGCCACCGCGTCATTGCCGTCTTTTAGTGCAGCCGAAGCAAGAAGATTTGCAGCAGACCACGGCCTCGCCGTAAGGGCCGTGGCCTTACGTGTCGCCGATGCCGAAGATGCTTTCCGCGCCTCTGTAGCAGCTGGAGCAAGGCCAGCATTTGAACCTGTTGAATTGGGGTTAGGATTCCGTCTTGCAGAAGTTGAGCTTTATGGCGACGTTGTTTTGAGATACGTTTCATATCCTGATGACGCTGACGCTAGCTTCTTGCCTGGTTTTGTGGGGGTGACATCACCTGGGGCAGCAGATTATGGTCTCAGGCGGTTTGATCATATTGTTGGAAACGTTCCTGAACTCGCGCCGGCGGCAGCCTACTTCGCCGGTTTCACTGGGTTTCATGAATTTGCTGAATTCACAGCCGAGGATGTCGGCACCACCGAGAGTGGACTGAACTCCATGGTGCTGGCCAACAATGCAGAGAATGTCCTTCTTCCCTTGAATGAACCAGTTCATGGAACAAAAAGGCGTTCCCAAATACAAACATACCTCGACCATCATGGTGGACCAGGCGTTCAGCATATGGCTCTCGCTAGTGACGATGTTCTACGAACCCTGCGAGAGATGCAGGCGCGGTCTGCAATGGGAGGATTTGAGTTCATGGCACCTCCTGCCCCTGAATATTATGATGGTGTTCGGAGAAGGGCAGGTGATGTGCTAACTGAAGCTCAAATCAAGGAGTGCCAGGAGCTTGGCGTGCTGGTCGATCGGGATGATCAAGGTGTGCTTCTGCAGATTTTTACTAAACCAGTGGGTGACCGCCCCACGCTGTGGCTAGAGATCATCCAGAGAATAGGGTGCATGGAGAAGGACGAAAAAGGACAAGAGTACCAGAAGGGAGGTTGTGGCGGCTTTGGAAAAGGGAACTTCTCCCAATTATTCAAGTCAATTGAAGACTATGAAAAGAGTTTGGAGGCTAAGCAAGCTGCAGCCGCCCAGGGCAGCTGA
modifications: SbHPPDm-F383W-02 Nucleotide Sequence
notes: vector DBN11760
[1]; mesotrione 52.5 g ai/ha
  Resistance evaluation: Non-resistant
  Scores: 69
  Grade 0 (classification and statistics of the grade of pesticide damage; number of plants): 0
  Grade 1 (classification and statistics of the grade of pesticide damage; number of plants): 5
  Grade 2 (classification and statistics of the grade of pesticide damage; number of plants): 5
  Grade 3 (classification and statistics of the grade of pesticide damage; number of plants): 6
[1]; mesotrione 105 g ai/ha
  Resistance evaluation: Non-resistant
  Scores: 100
  Grade 0 (classification and statistics of the grade of pesticide damage; number of plants): 0
  Grade 1 (classification and statistics of the grade of pesticide damage; number of plants): 0
  Grade 2 (classification and statistics of the grade of pesticide damage; number of plants): 0
  Grade 3 (classification and statistics of the grade of pesticide damage; number of plants): 16
Soybean T1 plants [2]
  tolerance to HPPD-inhibitor herbicides (in words): isoxaflutole: different degrees of tolerance
Soybean T1 plants [3]
  tolerance to HPPD-inhibitor herbicides (in words): mesotrione: different degrees of tolerance
[4]; topramezone 25 g ai/ha (1×)
  Classification and statistics of the grade of pesticide damage: Grade 0: 7
  Classification and statistics of the grade of pesticide damage: Grade 1: 6
  Classification and statistics of the grade of pesticide damage: Grade 2: 3
  Classification and statistics of the grade of pesticide damage: Grade 3: 0
  Scores: 25
  Resistance evaluation: moderately
[4]; topramezone 100 g ai/ha (4×)
  Classification and statistics of the grade of pesticide damage: Grade 0: 0
  Classification and statistics of the grade of pesticide damage: Grade 1: 0
  Classification and statistics of the grade of pesticide damage: Grade 2: 0
  Classification and statistics of the grade of pesticide damage: Grade 3: 16
  Scores: 100
  Resistance evaluation: non-resistant (non-resistant plants (scores 68-100))
[5]; [7]
  Resistance evaluation: Poorly
  Scores (pesticide damage): 65
  Classification and statistics of the grade of pesticide damage: Grade 0 (number of plants): 0
  Classification and statistics of the grade of pesticide damage: Grade 1 (number of plants): 1
  Classification and statistics of the grade of pesticide damage: Grade 2 (number of plants): 15
  Classification and statistics of the grade of pesticide damage: Grade 3 (number of plants): 0
[5]; [8]
  Resistance evaluation: Non-resistant
  Scores (pesticide damage): 100
  Classification and statistics of the grade of pesticide damage: Grade 0 (number of plants): 0
  Classification and statistics of the grade of pesticide damage: Grade 1 (number of plants): 0
  Classification and statistics of the grade of pesticide damage: Grade 2 (number of plants): 0
  Classification and statistics of the grade of pesticide damage: Grade 3 (number of plants): 16
Soybean T1 plants [6]
  tolerance to HPPD-inhibitor herbicides (in words): topramezone: different degrees of tolerance
